Source: the Human Domainome abundance scans (Beltran et al. 2025)
± gives the uncertainty stated by the source.

B1: SH3 and PX domain-containing protein 2B, residues 155 to 209; numbered along this chain, A1X283 (parent)
chain: EQYVVVANYQKQESSEISLSVGQVVDIIEKNESGWWFVSTAEEQGWVPATCLEGQ

Variants of: B1
Test: abundance fitness (aPCA) (normalised: wild type 0, dead -1); higher = more abundant; growth selection in yeast, the domain comes from the species named
Conditions: Homo sapiens

Q44H and Q44A are within error of each other in abundance fitness: -0.085 ± 0.18 for the first, -0.187 ± 0.1 for the second.

Q44C and Q44I are within error of each other in abundance fitness: -0.216 ± 0.13 for the first, -0.208 ± 0.28 for the second.

First: Q44R
Second: Q44P
The abundance fitness of the first is higher: 0.001 ± 0.06 for the first, -0.807 ± 0.22 for the second.

Q44F and Q44T are within error of each other in abundance fitness: -0.207 ± 0.19 for the first, -0.101 ± 0.11 for the second.

V5F and V5H are within error of each other in abundance fitness: -0.875 ± 0.2 for the first, -1.08 ± 0.31 for the second.

First: V5D
Second: V5S
The abundance fitness of the first is lower: -0.999 ± 0.2 for the first, -0.099 ± 0.076 for the second.

V5P and V5L are within error of each other in abundance fitness: -0.892 ± 0.15 for the first, -0.919 ± 0.12 for the second.

V5I and V5G are within error of each other in abundance fitness: -0.379 ± 0.14 for the first, -0.37 ± 0.064 for the second.

C51F and C51A are within error of each other in abundance fitness: -0.212 ± 0.1 for the first, -0.12 ± 0.11 for the second.

First: C51P
Second: C51V
The abundance fitness of the first is lower: -0.959 ± 0.22 for the first, -0.107 ± 0.071 for the second.

First: C51R
Second: V4F
The abundance fitness of the first is lower: -0.343 ± 0.071 for the first, -0.061 ± 0.1 for the second.

V4G and V4D are within error of each other in abundance fitness: -0.265 ± 0.076 for the first, -0.148 ± 0.1 for the second.

Going from V4R to V4M, the abundance fitness falls from 0.077 ± 0.096 to -0.463 ± 0.26.

V4Q and V4T are within error of each other in abundance fitness: -0.018 ± 0.15 for the first, 0.193 ± 0.18 for the second.

First: V4W
Second: V4I
The abundance fitness of the first is lower: -0.271 ± 0.12 for the first, 0.082 ± 0.13 for the second.

First: V4N
Second: V25L
The abundance fitness of the first is higher: -0.139 ± 0.14 for the first, -0.378 ± 0.083 for the second.

V25N and V25T are within error of each other in abundance fitness: -0.95 ± 0.41 for the first, -0.513 ± 0.15 for the second.

Q12H and Q12I are within error of each other in abundance fitness: -0.114 ± 0.19 for the first, -0.19 ± 0.14 for the second.

Q12M and Q12V are within error of each other in abundance fitness: -0.182 ± 0.14 for the first, 0.02 ± 0.08 for the second.

E1R and E1M are within error of each other in abundance fitness: -0.469 ± 0.19 for the first, -0.329 ± 0.24 for the second.

Compared with E1L, I28S is lower in abundance fitness: -0.001 ± 0.14 for the first, -0.337 ± 0.087 for the second.

Going from I28L to I28G, the abundance fitness falls from -0.041 ± 0.11 to -0.211 ± 0.059.

I28R and I28A are within error of each other in abundance fitness: -0.211 ± 0.073 for the first, -0.319 ± 0.073 for the second.

Q2W and Q2D are within error of each other in abundance fitness: -0.415 ± 0.1 for the first, -0.378 ± 0.18 for the second.

Q2V and Q2Y are within error of each other in abundance fitness: 0.012 ± 0.11 for the first, -0.29 ± 0.39 for the second.

Q2H and Q2S are within error of each other in abundance fitness: -0.178 ± 0.35 for the first, -0.058 ± 0.11 for the second.

Q2F and Q2N are within error of each other in abundance fitness: -0.185 ± 0.47 for the first, 0.13 ± 0.25 for the second.

S39T and S39D are within error of each other in abundance fitness: -0.039 ± 0.095 for the first, -0.113 ± 0.11 for the second.

Going from S39P to S39I, the abundance fitness rises from -0.864 ± 0.23 to -0.297 ± 0.11.

V38Q and V38E are within error of each other in abundance fitness: -1.08 ± 0.22 for the first, -0.76 ± 0.12 for the second.

V38K and V38P are within error of each other in abundance fitness: -1.03 ± 0.2 for the first, -1.14 ± 0.27 for the second.

V38N and V38H are within error of each other in abundance fitness: -0.895 ± 0.33 for the first, -1.13 ± 0.3 for the second.

V38T and V38D are within error of each other in abundance fitness: -0.875 ± 0.13 for the first, -0.736 ± 0.14 for the second.

First: V38A
Second: A41D
The abundance fitness of the first is higher: -0.07 ± 0.068 for the first, -0.273 ± 0.13 for the second.

A41M and A41N are within error of each other in abundance fitness: -0.084 ± 0.11 for the first, -0.244 ± 0.14 for the second.

A41S and A41T are within error of each other in abundance fitness: 0.034 ± 0.073 for the first, 0.015 ± 0.078 for the second.

First: S18R
Second: S14K
The abundance fitness of the first is lower: -0.646 ± 0.31 for the first, 0.026 ± 0.11 for the second.

S14G and S14Y are within error of each other in abundance fitness: -0.071 ± 0.063 for the first, -0.073 ± 0.13 for the second.

S14P and S14T are within error of each other in abundance fitness: -0.005 ± 0.1 for the first, -0.036 ± 0.087 for the second.

S14Q and S14H are within error of each other in abundance fitness: -0.347 ± 0.2 for the first, -0.125 ± 0.14 for the second.

S14R and S14I are within error of each other in abundance fitness: -0.073 ± 0.068 for the first, 0.014 ± 0.2 for the second.

S14N and N31Y are within error of each other in abundance fitness: 0.083 ± 0.45 for the first, -0.255 ± 0.11 for the second.

Compared with N31R, N31F is lower in abundance fitness: -0.007 ± 0.072 for the first, -0.259 ± 0.12 for the second.

N31K and N31V are within error of each other in abundance fitness: -0.028 ± 0.13 for the first, -0.158 ± 0.08 for the second.

G45D and G45S are within error of each other in abundance fitness: -0.964 ± 0.18 for the first, -0.965 ± 0.11 for the second.

G45A and G45C are within error of each other in abundance fitness: -0.604 ± 0.11 for the first, -0.779 ± 0.14 for the second.

G45H and G45L are within error of each other in abundance fitness: -0.815 ± 0.35 for the first, -0.444 ± 0.085 for the second.

Going from G45R to G45E, the abundance fitness falls from -0.723 ± 0.085 to -1.21 ± 0.2.

E13S and E13D are within error of each other in abundance fitness: -0.158 ± 0.078 for the first, -0.111 ± 0.14 for the second.

Going from E13V to E13W, the abundance fitness falls from -0.065 ± 0.071 to -0.467 ± 0.17.

Going from E13A to E13I, the abundance fitness rises from -0.359 ± 0.1 to -0.037 ± 0.12.

W35F and W35M are within error of each other in abundance fitness: -0.005 ± 0.23 for the first, 0.027 ± 0.085 for the second.

W35N and W35I are within error of each other in abundance fitness: -0.193 ± 0.18 for the first, -0.195 ± 0.13 for the second.

W35C and W35S are within error of each other in abundance fitness: -0.062 ± 0.089 for the first, -0.04 ± 0.066 for the second.

V24D and V24Y are within error of each other in abundance fitness: -0.277 ± 0.097 for the first, -0.263 ± 0.17 for the second.

V24Q and V24S are within error of each other in abundance fitness: -0.215 ± 0.11 for the first, -0.071 ± 0.077 for the second.

V24M and V24L are within error of each other in abundance fitness: -0.137 ± 0.1 for the first, -0.128 ± 0.077 for the second.

Compared with V47N, V47C is higher in abundance fitness: -1.05 ± 0.23 for the first, 0.001 ± 0.089 for the second.

Compared with V47R, V47M is higher in abundance fitness: -0.72 ± 0.093 for the first, -0.453 ± 0.15 for the second.

Going from V47H to V47Y, the abundance fitness rises from -0.967 ± 0.27 to -0.45 ± 0.13.

V47G and Y3C are within error of each other in abundance fitness: -0.493 ± 0.073 for the first, -0.349 ± 0.14 for the second.

Going from Y3I to P48S, the abundance fitness falls from -0.175 ± 0.13 to -0.544 ± 0.09.

First: P48I
Second: P48H
The abundance fitness of the first is lower: -0.956 ± 0.26 for the first, -0.455 ± 0.11 for the second.

First: E43W
Second: E43P
The abundance fitness of the first is higher: -0.31 ± 0.15 for the first, -0.856 ± 0.2 for the second.

E43I and E43Y are within error of each other in abundance fitness: -0.155 ± 0.14 for the first, -0.221 ± 0.16 for the second.

E43Q and E43A are within error of each other in abundance fitness: 0.065 ± 0.21 for the first, -0.038 ± 0.087 for the second.

E53T and E53A are within error of each other in abundance fitness: -0.018 ± 0.095 for the first, -0.014 ± 0.07 for the second.

E53M and E53K are within error of each other in abundance fitness: -0.144 ± 0.1 for the first, -0.004 ± 0.13 for the second.

First: Q23T
Second: Q23F
The abundance fitness of the first is higher: -0.085 ± 0.12 for the first, -0.741 ± 0.16 for the second.

Compared with Q23R, Q23N is higher in abundance fitness: -0.405 ± 0.12 for the first, -0.037 ± 0.18 for the second.

Going from Q23M to Q23L, the abundance fitness falls from -0.039 ± 0.12 to -0.288 ± 0.085.

Going from Q23E to I17Q, the abundance fitness falls from 0.001 ± 0.09 to -0.672 ± 0.19.

First: I17L
Second: I17N
The abundance fitness of the first is higher: -0.055 ± 0.084 for the first, -0.733 ± 0.47 for the second.

First: I17H
Second: I17T
The abundance fitness of the first is lower: -0.715 ± 0.24 for the first, -0.114 ± 0.12 for the second.

I17F and I17K are within error of each other in abundance fitness: -0.597 ± 0.16 for the first, -0.692 ± 0.14 for the second.

Going from I17S to E32Q, the abundance fitness rises from -0.576 ± 0.18 to 0.001 ± 0.12.

E32Y and E32I are within error of each other in abundance fitness: -0.345 ± 0.15 for the first, -0.066 ± 0.19 for the second.

E32A and E32C are within error of each other in abundance fitness: 0.027 ± 0.075 for the first, -0.152 ± 0.11 for the second.

Compared with E32W, E32V is higher in abundance fitness: -0.353 ± 0.1 for the first, 0.038 ± 0.082 for the second.

E32P and V21R are within error of each other in abundance fitness: -0.084 ± 0.083 for the first, -0.005 ± 0.071 for the second.

V21I and V21S are within error of each other in abundance fitness: -0.166 ± 0.12 for the first, -0.238 ± 0.1 for the second.

Compared with V21M, V21F is lower in abundance fitness: -0.066 ± 0.094 for the first, -0.286 ± 0.099 for the second.

V21L and S20A are within error of each other in abundance fitness: -0.188 ± 0.086 for the first, -0.13 ± 0.098 for the second.

S20Q showed an abundance fitness of -0.126 ± 0.17.
